This is an account of results in the supplement of paper PMC12042874.

A short description of this data set: amyloid nucleation score (Sup35N fusion, yeast selection) (log enrichment); library NNK1; higher = more nucleation; inactive = no reads after selection. An outline of the steps: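 For the nucleation score, DiMSum gave the log enrichment of output over input reads, centred on the mode score of non-aggregating sequences. Psi-negative yeast expressing Sup35N fused to peptides of 20 random codons were induced with 100 μM copper sulfate for 24 hours and grown 7 days at 30°C on medium lacking adenine and uracil. Input and output plasmid inserts were Illumina-sequenced, and sequences with under 100 input reads were excluded.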

± gives the uncertainty stated by the source.

In the case of AMWLFACGLWLLLPRYIGRC, the amyloid nucleation score was -0.485 ± 1.2. Turning to VRYYMALMRWDDNVNSMCMG, the amyloid nucleation score entry is “inactive”. The substance WQSCWIWTKCRTVDVRRKKD yielded an amyloid nucleation score of -0.598 ± 0.43. The value for RRYRSWGGV was -0.267 ± 0.35; that for YLRPGCSSVRSNATMGNSYL was 0.641 ± 0.45; that for MRHRCGHRSVPG was -0.118 ± 0.68.

The substance SNIKLGFLRSLHIMKTSSDL yielded an amyloid nucleation score of -0.113 ± 0.41.

Consider LTLFQYAFDVHETAVLKLEW, for which the amyloid nucleation score was -0.166 ± 0.4.

The substance SYCFFYDDMRTWWFYS displayed an amyloid nucleation score of 4.4 ± 0.11. SDSGCEGESCQNRLISVGLL returned an amyloid nucleation score of -0.084 ± 0.46.

HVVFVMDVRYPKIAVVYLLA: the amyloid nucleation score was found to be 1.1 ± 0.66. Next, FYCPRIKNVFSEICIC: 3.79 ± 0.1; SFLCAFICHYTDVFVHLARS: 1.49 ± 0.54. Next, NSPKYLKLSCSTLLTALLGR: 1.16 ± 0.28; QIYVIICLMFSDIGMHIAYV: “inactive”; ILGWHGIRFVFRTALFRR: -0.286 ± 0.41. Next, LSTGLKFACATRVSYALVRV: 0.117 ± 0.5; VNVGRKYGAVLGPGVNYGAK: 0.142 ± 0.29. Consider RRSCRRTGGTSASKPSRQAF, for which the amyloid nucleation score turned out to be 0.013 ± 0.45. In the case of YSMSRMIIKVKLQRHVMNYS, the amyloid nucleation score is -0.88 ± 0.73. The value for TYCMYDYRKAVGEGWQFR was 0.124 ± 0.38.

SYTFSVYLVNWDGF displayed an amyloid nucleation score of 2.43 ± 0.26.

Turning to SIVMYDTNMTFRWSAYGRKN, the amyloid nucleation score amounted to 2.13 ± 0.096. Next, LNDRYYVIM: 0.233 ± 0.93; TPVTRIILVVVIRVPSGSGY: -1.03 ± 0.8; FGLIATTETRAVSKMNVFDN: 1.56 ± 0.49. The value for IYSARFIGVRPNYYCMDARP was -0.85 ± 0.88; that for RFVWKDDTHQAIGTFLMSQG was 1 ± 0.54. YILACAKVTEDPVSVSMKCA gave an amyloid nucleation score of -0.278 ± 0.74. Next, CPLEDLIKRLNHLYVH: 0.21 ± 0.6. Next, FGHKKPVGLTGLNGFSGTGV: 1.91 ± 0.63; PDFIHFY: 0.182 ± 0.38; SVFQVCFWFKYKRR: 0.201 ± 0.43.

Regarding DYDTMSNFSDSALCTPIRCD, the amyloid nucleation score amounted to 0.485 ± 0.35. Regarding TQHRRLVSRSQEFNVTQLKW, the amyloid nucleation score was determined as 2.3 ± 0.27. Substance ILMYMWDKLNLYNIWFLRQV showed an amyloid nucleation score of 0.263 ± 0.5. As for LYSVRLRSVSK, the amyloid nucleation score is -0.376 ± 0.25. The value for NYVYR was -0.742 ± 1.2.

In the case of YKASG, the amyloid nucleation score came out at 0.794 ± 1.1. As to TCYGQAVFLTDCSGRWDIYE, the amyloid nucleation score worked out at 3.34 ± 0.16. Next, AVVERFHL: -0.132 ± 0.39.

PHPVVLASLSIDWVPRCSES: the amyloid nucleation score is -0.179 ± 1.

Regarding SNFCDSDLYLFRNWPYYWHS, the amyloid nucleation score is -0.434 ± 0.26. The value for EFSSKMSRMM was 0.268 ± 1.2. The value for DNFMSAGRLWSDSSADLIIT was 0.277 ± 0.79; that for VGWFSNESWYLAVNDYGPA was 0.335 ± 0.3. With SVPKLKAEVE, the amyloid nucleation score was -0.273 ± 0.2.

In the case of SYYSGFRMATVSHRIRWRSM, the amyloid nucleation score stood at 1.88 ± 0.7. The value for DLCFCTR was -1.37 ± 2.7. The value for CNYWRNRRWF was 1.48 ± 0.33; that for YDKFFGVSIDDR was 0.038 ± 0.59.

On to RHALGLFRSGLGMDMDDNGS, for which the amyloid nucleation score entry was “inactive”. For ATSPLCCRH, the amyloid nucleation score was found to be 0.022 ± 0.28. In turn, LRVQWRQSTFN displayed an amyloid nucleation score of 0.865 ± 0.48.

For VMPRTES, the amyloid nucleation score is 0.408 ± 0.9. Take FPGSRDPGVNRSWSYNSIDT: the amyloid nucleation score turned out to be 1.87 ± 0.14. Next, SCYVWDCENGSTLFIFVARR: “inactive”; VFWSV: -0.096 ± 0.5. Next, RSFDLRSSTTLERLFFHMCA: -0.493 ± 0.88; SIYSFDHYGANRFLFYGGLS: 0.358 ± 0.62. The value for GFVEYYRVLTYDKM was 1.22 ± 0.88; that for ILILRGNCR was -0.165 ± 0.73.

As to FVINSTIRKVFFGFPDWCMC, the amyloid nucleation score is -0.135 ± 0.3.

With FEIMQPNAHISCHYCYLVNM, the amyloid nucleation score amounted to 5.01 ± 0.059. CDGPCALQS: the amyloid nucleation score worked out at 0.263 ± 0.51. Next, CYCLNAGVSMADHSVPPRVF: 0.912 ± 0.71; VASFRMG: 1.37 ± 0.14; VYATSSIKIAVPVLHQAVLP: 3.14 ± 0.096. The value for SCVYNWFIKVLPKVSTMSGD was 0.41 ± 0.52; that for NNVNEVWWA was 0.249 ± 0.69. For the substance DFVMGYYVELWFMYASL, the amyloid nucleation score is 0.4 ± 0.21. Next, MARPLRIHYNYSGSNDLRVR: -0.444 ± 0.4.

For SYSFWPMQLTCYFFDVGRCL, the amyloid nucleation score was found to be 7.434 ± 0.073. The substance SDFNNTFIYSGEKQVLISTC showed an amyloid nucleation score of -0.147 ± 0.34. On to WTSIV, for which the amyloid nucleation score turned out to be 1.38 ± 0.47.

Consider DHGHCISPNTSYFMVDWFLK, for which the amyloid nucleation score came out at 0.473 ± 0.39. The value for TSFCGLVAPQLCKFSMRSLE was -0.504 ± 0.47; that for VYRIAMIF was 1.22 ± 0.31; that for GPQIGG was 1.38 ± 0.17. The value for CWTLSDVLFDNNLFTMNMGP was -0.291 ± 0.67; that for CSFLELLWDVGRCSASQQCM was -0.943 ± 1.7; that for TRCKTGSLRLNYVDISQPHV was 0.683 ± 0.8. Take HVTVNGWGAVSFLKNAKVVR: the amyloid nucleation score entry was “inactive”.

As to FAMTNFRYDLPQTHPLPRAV, the amyloid nucleation score is -0.679 ± 0.54. The value for NMQTYGGLKE was 0.116 ± 0.71; that for LLDRLRRTGLRRCYVSGEFP was 5.89 ± 0.084. The value for NARYYYQSAIADVI was 0.64 ± 0.29; that for IYEILKVTS was “inactive”. The value for VMVIMDS was 2.11 ± 0.21; that for WGNLCRNYD was 0.004 ± 0.28. Turning to RYYLMVFFKWIFEIWKMVLK, the amyloid nucleation score was -0.646 ± 0.28. The value for SLWNSYLETRV was 1.14 ± 0.69. The value for TLGVMEGRNSDSLTVCRVGS was 1.06 ± 0.5; that for LYSSLSYTKFMCAG was -0.51 ± 0.81; that for HFEQGYAHSSYMWVLGRPMW was 2.86 ± 0.087. Next, CILAGGSSVGLNCVGMSTCG: 0.438 ± 0.8. YLAKISSHDPGIAMMEMTGR: the amyloid nucleation score turned out to be 0.315 ± 0.35.

For the substance KLSVGLRYCRPATRTSAHVM, the amyloid nucleation score stood at 0.271 ± 0.35. The substance QTWLTLDQFVLTFGHKDNLG gave an amyloid nucleation score of 0.853 ± 0.51.

LDTIVIVWRNCLRYKFHLCL had an amyloid nucleation score of -0.057 ± 0.84. The value for DGKHWTDYLVMY was 1.5 ± 0.47; that for GDMFVAKCYSRGDSQISLMF was 0.368 ± 0.37; that for CSDFITLSMFV was 0.99 ± 0.66. HVFSLKRPDGCRRR came in with an amyloid nucleation score of 0.711 ± 0.38. Next, HHIRCRVRIQNNPS: 0.368 ± 0.55.

Substance LCAMIPAVGRYWSCVVGHSV yielded an amyloid nucleation score of -0.013 ± 1.6. Next, VGRACRPDWFLFLRRRKGSR: -0.344 ± 0.44; VLSRLCLYVSVMSRDNKYGS: 2.38 ± 0.46. Next, LMSWEL: 0.462 ± 1.2; LRKCSLAVPYGLRLVYLRKE: 0.14 ± 0.54; CKKELFKT: 0.77 ± 0.66. Next, IGCLKFSFFHNLGFGSIDYR: -0.742 ± 0.53. For TCKTCLR, the amyloid nucleation score came out at 0.858 ± 1.1. The value for KRLDVKMVLPEVRFRLDVSL was 0.732 ± 0.27; that for PAFFCFWNNLSCVSTWSYLV was 2.44 ± 0.088.

Consider VGFVATNCRWSCFS, for which the amyloid nucleation score was 5.5 ± 0.11. The value for TDQVWMLVSRRFKHFRHIEV was 1.38 ± 0.2; that for RGGMIPGYTPAMYHWMLFKS was 0.185 ± 0.47. The value for FDECGAGLLPTG was -0.198 ± 0.41.

Substance NIKEKG displayed an amyloid nucleation score of 0.635 ± 0.44. Next, FEQCPIFRRGRLLRSNAVCA: -0.145 ± 0.33; VAMRIWLVNACLGG: 0.092 ± 0.63; KGLIKDNCNTSGGEFNCGY: -0.278 ± 0.21.

Substance LVMCVFLSASVYVFPTHLSS came in with an amyloid nucleation score of -1.18 ± 1.4.

On to NKFGQSAGYLSTFACAVGIG, for which the amyloid nucleation score amounted to 0.595 ± 0.39.

In the case of AMGRGLNWCPIGFVVSDMQR, the amyloid nucleation score was 1.39 ± 0.67. Next, FNIYSQMYIW: 5.32 ± 0.066. The value for VLSFDLVTVVGNKFLVWIKR was 0.276 ± 0.52; that for MTRVNLKDKHNVRILSFN was “inactive”. Next, DLSDLFLYHFVIWTSVNYSY: -0.562 ± 1.1; FILSEFSNRF: 0.104 ± 0.34. NTGREVFIRIMCPL: the amyloid nucleation score was -0.212 ± 0.73. The value for HYRYFCGLTYVDSAARLQGG was -1.5 ± 1.8. Next, ILPKWAK: 0.7 ± 0.97. Next, SFSVVCRLKRAFGLAVIVRR: 0.184 ± 1.2.

Substance RNNCEMCLGFLS yielded an amyloid nucleation score of 0.827 ± 0.37. The value for MSGWG was 0.167 ± 0.27; that for RDWTRGHACRYCSWQWVARG was 0.529 ± 0.88. Next, FTVVLYLSVVLKFKDAGEEG: 4.09 ± 0.092. Next, YELTRIR: 2.38 ± 0.17; SVENQNIKRYT: 1.28 ± 0.33. RLNVQLAGSVGVVWFICNWA returned an amyloid nucleation score of 5.98 ± 0.056.
